Paper doi:10.1101/2025.08.03.668247, “The structure of Egalitarian in complex with the K10 mRNA localization signal reveals a modular binding surface required for function”
Positions count from the first letter of the chain named.

Key:
Assay in all cases: fluorescence anisotropy; FA: 20 mM HEPES-NaOH pH 7.5, 100 mM NaCl, 10% glycerol, 20 C, 10 nM FAM-RNA; competition: 150 nM Egl512-819 + 10 nM FAM-K10 TLS, same buffer
Conditions in all cases: protein: recombinant; tags: N-terminal GST; label: 5'-6-FAM; hairpin with two bulges
K755A = target: T1, K755A (Drosophila melanogaster, UniProt Q9W1K4 512-819, K755A)
T1 sequence: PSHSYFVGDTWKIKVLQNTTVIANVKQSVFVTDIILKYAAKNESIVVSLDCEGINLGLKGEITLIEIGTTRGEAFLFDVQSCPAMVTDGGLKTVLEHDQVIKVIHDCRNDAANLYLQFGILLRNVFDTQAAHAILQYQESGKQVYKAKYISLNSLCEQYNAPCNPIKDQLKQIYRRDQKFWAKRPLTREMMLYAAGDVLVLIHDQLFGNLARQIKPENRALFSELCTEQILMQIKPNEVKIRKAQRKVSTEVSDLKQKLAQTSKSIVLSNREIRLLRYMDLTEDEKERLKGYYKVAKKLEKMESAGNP

K754A = target: T2, K754A (Drosophila melanogaster, UniProt Q9W1K4 512-819, K754A)
T2 sequence: T1 sequence with K243A, A244K

K751A = target: T3, K751A (Drosophila melanogaster, UniProt Q9W1K4 512-819, K751A)
T3 sequence: T1 sequence with K240A, A244K

R785E = target: T4, R785E (Drosophila melanogaster, UniProt Q9W1K4 512-819, R785E)
T4 sequence: T1 sequence with A244K, R274E

D617A/R619A/N620A = target: T5, D617A/R619A/N620A (Drosophila melanogaster, UniProt Q9W1K4 512-819, D617A;R619A;N620A)
T5 sequence: T1 sequence with D106A, R108A, N109A, A244K

EXO-L (Egl512-770) = target: T6, EXO-L (Egl512-770) (Drosophila melanogaster, UniProt Q9W1K4 512-770)
T6 sequence: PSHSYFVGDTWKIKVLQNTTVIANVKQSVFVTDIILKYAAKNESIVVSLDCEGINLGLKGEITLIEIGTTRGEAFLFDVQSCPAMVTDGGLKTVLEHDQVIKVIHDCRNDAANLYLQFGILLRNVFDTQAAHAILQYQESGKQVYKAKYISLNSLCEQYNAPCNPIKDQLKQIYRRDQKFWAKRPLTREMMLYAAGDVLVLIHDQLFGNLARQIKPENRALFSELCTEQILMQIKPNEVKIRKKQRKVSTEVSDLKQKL

Binder: CUUGAUUGUAUUUUUAAAUUAAUUCUUAAAAACUACAAAUUAAG (structured_RNA) [K10 TLS (FAM)]
- Kd (K755A): 131 ± 5 nM
- Kd (K754A): 212 ± 8 nM
- Kd (K751A): 140 ± 10 nM
- Kd (R785E): 210 ± 5 nM
- Kd (D617A/R619A/N620A): 273 ± 12 nM
- Kd (EXO-L (Egl512-770)): 807 ± 104 nM
